Data published in US8278109.

Key:
[1] = molecular target: JEG-3 derived purified hCG-H (human) (UniProt P01215); assay: SPR (Biacore); 7 injections of B152 at 20-100 micrograms/ml over JEG-3 hCG-H; lower end
[2] = molecular target: JEG-3 derived purified hCG-H (human) (UniProt P01215); assay: SPR (Biacore); B152 concentration (100 micrograms/ml) giving 223 RU on hCG-H compared with SMA 3E8 and SMA 4D8
[3] = molecular target: JEG-3 derived purified hCG-H (human) (UniProt P01215); assay: SPR (Biacore); 7 injections of B152 at 20-100 micrograms/ml over JEG-3 hCG-H; at 100 micrograms/ml

Sequence of UniProt P01215 (P01215 25-116, chain 1 of 2, other chains not shown): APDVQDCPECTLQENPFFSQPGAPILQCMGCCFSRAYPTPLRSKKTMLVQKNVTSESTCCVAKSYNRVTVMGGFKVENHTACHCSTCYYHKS

- response [1]: 60 RU
- fold antibody concentration needed for the response, against SMA 3E8 and SMA 4D8 [2]: 50 to 100 fold
- response [3]: 223 RU
Substance: B152 (antibody)
